Data on 23 sequences can be found in the DeepSol protein solubility set.

The data set in a line: soluble on expression in E. coli; label from the status in PepcDB or PDB records.
For the sequence “MTEHTGLWLYAVADQLPDGRLPCPAGIDEAPVEAIAHDGLAAVVSPVDLHHYGEEALARRLEDFDWLAATANRHHAVIEAVHHLSTTVPMRLATVYTEPRRVSTLLAEQHDLLRRALDSVAGHTEWGVKAFAVNRPQAPPAAGGEESGAAYLRRRRAELANADAVRQEVWDAAQHAFHELGLLAVAQRRHRPQDAKLTGKPEPMLLNGSFLVEDTEQDAFTKAVSTLTADHPELEIQLSGPWPPYSFAGLAVEA”, the “soluble on expression in E. coli” value is listed as “not soluble”.

Take “MTDKNPISEAKRYLDNARTILKEKGNKENRFYRDPKYVKMAGHTAYAGVLLALDACFGDKTKGRKDVGWYKEQLSGMDKTALKNFISAYDLLHVAMSYDGNTDSDIAKLGLTRADEIILWVEQRTVTC”: the “soluble on expression in E. coli” value is “soluble”. On to “MGSDKIHHHHHHMILRKKKSLNAGPINGTGEGVAHSKRWYVALVRMHHEKKVSEHLDKMGIENFVPVQQELHQWSDRRKLVTSVLLPMMVFVHADPKERMEVLSFSTVSRYMVMRGESSPAVIPDEQMARFRFMLDYSEESISMNSSPLARGEKVRVIKGPLTGLVGELVNVDGRSKIAVRLNMLGCACVDMPVGYVEPIMAAV”, for which the “soluble on expression in E. coli” value is reported as “not soluble”. To “FGSLTVFAGDSPYAPPAGGEAIGRLMERAMHDGLVAGGIVLVGNRHGTIYEHVFGKQSSLPDSPPVTSSTIFDIASLTKVIATTPAVMRLAEEGRLSLVDPLVRWFPEFAGHGKDDVLVVHLLTHTSGLDDFSLSSADPLQSAISGVAAQKLKGEPGNRFRYADINFILLGELVRRVTGSTLDRYAADAFLRPLGMKDTAFLPGPAIAERCAATLDGSGGPHFGTVQDPLARLLGGVAGHAGLFGTASDLALFCRMILGEGELNGRRVLEERTVRQMTAPYFSRGGKVTRGLGWDMASPFSSPRGEGFSEESFGHTGYSGGSIWIDPRTDTYVIFLS” belongs “not soluble”; to “MGSDKIHHHHHHMSRRQHFAKVTPLLHRHGDYFVFIGFDYGTANCSVAVMRDGKPHLLKMENDSTLLPSMLCAPTREAVSEWLYRHHDVPADDDETQALLRRAIRYNREEDIDVTAKSVQFGLSSLAQYIDDPEEVWFVKSPKSFLGASGLKPQQVALFEDLVCAMMLHIRQQAQAQLPEAITQAVIGRPINFQGLGGDEANTQAQGILERAAKRAGFRDVVFQYEPVAAGLDYEATLQEEKRVLVVDIGGGTTDCSLLLMGPQWRSRLDREASLLGHSGCRIGGNDLDIALAFKNLMPLLGMGGETEKGIALPILPWWNAVAINDVPAQSDFYSSANGRLLNDLVRDAREPEKVALLQKVWRQRLSYRLVRSAEECKIALSSVAETRASLPFISNELATLISQRGLESALSQPLTRILEQVQLALDNAQEKPDVIYLTGGSARSPLIKKALAEQLPGIPIAGGDDFGSVTAGLARWAEVVFR”, “not soluble”. As to “MFALPQAGDRRGEIIKVLLSNGWDYMNGLLTLGKVGEPQIPTPEVLTKILVELGPFYIKLGQLLSTRPDLLPPRYINALTALQSNVPPLPWSAIEDLLQREFPQPLGETFQEIESEPIAALEHHHHHH”, the “soluble on expression in E. coli” value is “not soluble”. On to “MALDRLREALGEALFGQEEVIEALLAVLLARGHALLEGMPGLGKTLLAESLARASGLAYKRIQFTPDLLPQDLTGSEVYREGRFVFVPGPIFAQVVLADEINRAPPKVQSALLEAMQERAVTAGGVRHPLPEPFFVIATQNPLELEGTYPLPEAQLDRFTAKIPFRPPRREVWLRILTEEPKAPEPVEVDLLKAQEEAKEVRVAKEALEAITHVAFLTQEDQRLRMGLSPRGAKAWLSLARALAYLRGKPFVDWKELKDAAFLALPHRLFLTEEALYAGESAEGVLKEALRKGGIPLEHHHHHH”, for which the “soluble on expression in E. coli” value is reported as “soluble”. With “MAIQFIVSNKYTAEVSKQLNDSQNWVLDSGIYYEDHNNHIVSSPINSATKPQNTREEWLWIPPHCQVVVCSTSSLKSFLGCKASEDLDRVFGDHPLWLDQLRPLSNLLENSLIDLLSRAPFEQSSKRNIQSMERGNPVMNWNVMQVEEEDTRGEQRVAASSSLSSSFDWNTFLRDRCGLSEEDVAYCFRKLSRFGRVSLSRLNEDSLLRMGINDPTVIAKLLIGITEEFS”, the “soluble on expression in E. coli” value is reported as “not soluble”. With “MQVFIMRHGDAALDAASDSVRPLTTNGCDESRLMANWLKGQKVEIERVLVSPFLRAEQTLEEVGDCLNLPSSAEVLPELTPCGDVGLVSAYLQALTNEGVASVLVISHLPLVGYLVAELCPGETPPMFTTSAIASVTLDESGKGEFNWQMSPCNLKMAKAI”, the “soluble on expression in E. coli” value was “soluble”. On to “MGMSSLRDLGLSEYEARAYRSLLETGPTTAKELSRASDVPMGRIYDVLNSLETYNLVRSQTASRPKKYVAVEPDTALDRLLEDKKRELQEKVGQYEEIVDDLSSQLESADPVEEPFWTAAVGPDNSLDLLLERLAAADDEIIMVGSAPARQVDILSGTERIVDELEAALERGVEVSLLVRPDLFESLPEEANREYYERLFHYDNYSARASPNIRTTFELLDGVEVCIEVPHPLGREETFGVIDMKDSDFTADISQAFEEHWAEAKPVGPP”, for which the “soluble on expression in E. coli” value is “not soluble”. As for “MPEDVKNFYLMTNGFHMTWSVKLDEHIIPLGSMAINSISKLTQLTQSSMYSLPNAPTLADLEDDTHEASDDQPEKPHFDSRSVIFELDSCNGSGKVCLVYKSGKPALAEDTEIWFLDRALYWHFLTDTFTAYYRLLITHLGLPQWQYAFTSYGISPQAKVREEHLPL”, the “soluble on expression in E. coli” value is recorded as “not soluble”. To “MGSDKIHHHHHHMKTAEPQTIDDLERWIKSRGITEVECLVPDLSGIPRGKILPARKFLSCLRDRGLRLPESVFTQTVTGEYPEDDPVDIADSDVYLRPDPRTIRVVPWYEEPTAQVINDCFHRDRSEVHCAPRQVLRNILALYEKQGWKPVVAPELEFYLVRINADPDYPLEPPIGRSGRAETGRQAYGIDAVNEFDPLFEDIYDYAEEQNLDLDTLHHESGSAQMEINFLHGDPMELADQVFLFKRTVRQAALRHNVYATFMAKPLAGQPGSAMHLHQSITDAESGRNILVKKNGEDSDLFRWHIGGLQKYLPHCMLMLAPNVNSYRRFLPDQSAPINMHWGHDNRTVSLRVPYADASARRVENRLSGADANPYLAIAASLACGYLGMIEKIEPTAPITGSAYTRAHNLPRHLPDAIERFERARPLHELLNADFVRVYASVKWAEWDAYQHVISSWEREYLLLNV” belongs “not soluble”. For the sequence “MGSDKIHHHHHHMEKRYQIFISSTFIDLKDERQAALKAILEIDHMPAGMELFSATDDSAWQLIQDVIDSSDYYILIVGGRYGSLDEAGLSYTEKEYDYALLTKKPVIPLLHENPDNLPRDKTETDSNAWKKLQDFRKKVQKKHTCVYWRNADDLKAKVIVGLTSAIKRHPAVGWVRADKVPTETALAEVLSLKNKITELEKEAALLRDKPPSGTEFLAQGNDKYEIHLSFKSRGKFSIFSHDEDKKYNASINLTWNAIFAAVAPSMINEASAHTLRQAFTDFFKRESLKAFQSQKRFENYELVDFSFHKDEIETCIVQLRALGLIKENDRKRSVSDTSTYWTLTPYGNTLMVQLRAIKREPLEDEDLDGTAVES”, the “soluble on expression in E. coli” value is on record as “not soluble”. Consider “MGSDKIHHHHHHMPHPYHERLNFKTELPLRVISHGTVGPKMVLPHWHRAVELAYAYRGQPGTAHIGRSTYHMLADHLYVINSEVVHSYETFLDEDNQIVTLLLPASWLRNAVADEQLPIWGPLDLDLQSAVYQPLAKAVQTLVAGVITPSSARSAYLTSLGAEYQLVGQLLKHLTVNGQVTSDQLPLPAPLRQAVTELQENYAQPVSIANLAEQLNYSSVYFSRYFKDYMGISPKAYLGQIRLERATSLLMTSQDSIQNIALKTGFSTEKNFFVTFKQYYQMTPRTYRQRYSAQQSWS”, for which the “soluble on expression in E. coli” value is given as “not soluble”.

For the sequence “MSLKAIAKLRDHCIVCGYGRIGSVVAKELMEEGVALVVIENDPAMIEALETEGILHLAGDATNDELLQAAGIERARALVAALSLDSANVYVVLSAHQINPSMTIVARASEPSHIGKLKLAGADRVFLPHHLGGLRMAQSILRPTVTSFIELAHTRSDLSIQMEELEIGDDSVLVGKTLIESGIRPQYNLIIIGVKRPDGTMHFNPESTYTLQARDTLIAVGFPENFKQFQEILEGHHHHHH”, the “soluble on expression in E. coli” value is listed as “soluble”. To “MQVRRAVLGAAHVERSLANLTPFNEEFQEMITRHAWGDIWTRPGLPRHTRSLVTIAMLIGMNRNEELKLHLRAAKNNGVSRDEIKEVIMQSAIYCGIPAANATFHLAESVWDELGVESQQASR” belongs “not soluble”; to “MKVNPDFFPLTQMAQRFVDQLAQCRRLGLTVLEASEHHVLIELPYSTELIGYPDTGVIHGGVITTLMDTACGSAVVSAIFQKYQSLEISPTLDLRVDYMKPAQPHKSVYGFAECYKLSSNIAFTRAIAYQDSIDDPIAHAVGSFMRISPEMVGDAFRQALIGLEHHHHHH”, “soluble”. Consider “MRYGEKEIKEFDVENMEIWPNDAKNDYIIKITLPEFMCCCPRSGYPDFATIYLEYMPDKFVVELKAIKLYINTFMYRNVSHEASINEIYNTLKDKLKPKWIKVVGDFNPRGNVHTVIECRSDMVVPK”, for which the “soluble on expression in E. coli” value is on record as “not soluble”. As to “KPTAEVVPVNRGFHFQTNKVPSESDVFKHNYDLTFSLNFTNKSNDIYGTGWLFDWKGDEKALGIDGSFVPSITSNIDNSLLKDDQFTVYLATNLHVADALRNDQDYEPYKKDQNKQDFTENTKTEFFSLGKYLEGEQLKQYISKEENQSANQTDKALVSIQASNIPKTAYTATDFVDMNSYSYNNITTSLPGNYADFAVI”, the “soluble on expression in E. coli” value was “not soluble”. To “MGSDKIHHHHHHVALAIPQIHAHEHSDEQLMQRYAQGDSQAFEQLYLKHKGALYRYFVRQLGDKQLAEDLYQETWGRVIRAAVNYQVSAKFSTWLYRIAHNLLIDHVRAVKPVDFIASDTDVTGLDTFEGCDQDKPDIHWQEAQKSLLLKTCISLLPQVQKEAFILNIEMGFTAAMISDIAGVTLEATKSRIRYAYQSLKECVNAKWQEAGHE” belongs “not soluble”; to “MADNVAGNDRLIWIDLEMTGLDTDRDSIIEIATIVTDAQLNVLAEGPELAIAHSLETLEAMDEWNRNQHRRSGLWQRVLDSQVTHAQAEAQTVAFLGEWIRAGASPMCGNSICQDRRFLHRQMSRLERYFHYRNLDVSTIKELARRWAPAVASGFAKSSAHTALSDVRDSIDELRHYRQFMGTLGGDNGGGVQN”, “soluble”.

As to “MGHHHHHHSHMAQLENQILETLKPLIDANTGKSYVAAKNVKNLKCGDAEISLDVVLAYPAKSQFDAVRQQFEAALAPLAEGRAIKIAVSAQIVSHSAQRGVPLLPGVKNVIAVASGKGGVGKSTTAANLALALADEGARVGLLDADIYGPSQPLMMGLQGQRPETADGKLTPLSNHGIQTMSIGYLVDADQAMVWRGPMVSQALQQLLNDTRWDDLDYLVIDMPPGTGDVQLTLSQKVPVTGALIVTTPQDIALLDARKGVTMFQKVGVPILGLVENMAIHVCSNCGHAEHIFGEGGAVKMAQDFGVELLGSLPLDLAIRQAVDEGRPSVAADPSGKPAELYRAIARRVAVKVGEKAQDFSGKFPKIVIQNN”, the “soluble on expression in E. coli” value is given as “soluble”. To “GMGDSAGLPPIYADKPIELAPAKIITSFPVNTFLENLASAPDGTIFVTNHEVGEIVSITPDGNQQIHATVEGKVSGLAFTSNGDLVATGWNADSIPVVSLVKSDGTVETLLTLPDAIFLNGITPLSDTQYLTADSYRGAIWLIDVVQPSGSIWLEHPMLARSNSESVFPAANGLKRFGNFLYVSNTEKMLLLRIPVDSTDKPGEPEIFVEQTNIDDFAFDVEGNLYGATHIYNSVVRIAPDRSTTIIAQAEQGVIGSTAVAFGQTEGDCTAIYVVTNGGMFLPPPTGVVPANVVRLEVGKPGYPLG” belongs “soluble”.
